Publication PMC5618617 (International Journal of Molecular Sciences, 2017)
Each block holds one binder with its values, some of them ahead of it. No end group written: not given here. cellulose support = cellulose support (Whatman 50 cellulose membrane) to which the peptide C-terminus is covalently bound

What was measured:
Conditions in all cases: both partners purified
[1] = biological target: T1, human c-Met extracellular domain (ECD)-fragment crystallizable region (Fc) (human, UniProt P08581); test: ELISA; competitive: recombinant human c-Met coated; pre-bound with or without 2.5 µg/mL HGF 1 h at room temperature; then IRCR201 or huOA5D5.v2 1 h; antibody detected with anti-human IgG F(ab')2-HRP
T1 construct: hepatocyte growth factor receptor (c-Met), human, extracellular domain; c-Met is naturally cut into alpha and beta chains; also called human c-Met ECD-Fc; recombinant human whole c-Met ECD-Fc; source: bought: Sino Biological, 10692-H03H

[2] = biological target: T2, c-Met peptide E-7 (523–537) (Homo sapiens (Human)., cysteine pairing not given here); test: peptide or protein array; overlapping 15-mer peptides of c-Met 1-932, 5 nmol/spot, bound by the C-terminus to cellulose; scFv in 5% skim milk at 4 °C overnight; bound scFv electroblotted to PVDF and detected with anti-HA-peroxidase
T2 construct: c-Met, human, amino acids 523-537; source: synthetic peptide (JPT Peptide Technologies), on cellulose membrane
T2 chain: FQSCSQCLSAPPFVQ-{cellulose support}

[3] = biological target: T3, c-Met peptide F-7 (527–541) (Homo sapiens (Human)., cysteine pairing not given here); test: as above
T3 construct: c-Met, human, amino acids 527-541; source: synthetic peptide (JPT Peptide Technologies), on cellulose membrane
T3 chain: SQCLSAPPFVQCGWC-{cellulose support}

[4] = biological target: T4, c-Met peptide G-7 (531–545) (Homo sapiens (Human)., cysteine pairing not given here); test: as above
T4 construct: c-Met, human, amino acids 531-545; source: synthetic peptide (JPT Peptide Technologies), on cellulose membrane
T4 chain: SAPPFVQCGWCHDKC-{cellulose support}

bovine serum albumin = biological target: T5, bovine serum albumin (Bos taurus (Bovine)., UniProt P02769); test: SPR; Biacore T100; human c-Met, mouse c-Met or BSA amine-coupled on a CM5 chip; different concentrations of purified IRCR201 injected
T5 construct: serum albumin, bovine; also called BSA

[5] = biological target: T1, human c-Met extracellular domain …; test: as above
mouse c-Met ECD-Fc = biological target: T6, mouse c-Met ECD-Fc (Mus musculus, UniProt P16056); test: as above
T6 construct: hepatocyte growth factor receptor (c-Met), mouse, extracellular domain; source: bought: Sino Biological, 50622-M02H

[6] = biological target: T7, human RON (recepteur d'origine nantais) ECD-Fc (Homo sapiens, UniProt Q04912); test: ELISA; 0.1 µg antigen coated per well at 4 °C overnight, blocked with 3% skim milk; dilutions of IRCR201 1 h at room temperature; goat anti-human IgG F(ab')2-HRP
T7 construct: RON receptor tyrosine kinase (macrophage-stimulating protein receptor), human, extracellular domain; The legend calls it ECD-Fc; the catalogue number's ending (H08H) may stand for a His-tagged product (surmise); also called human RON protein; source: bought: Sino Biological, 11608-H08H

- binding result [1]: binds
B1: onartuzumab (huOA5D5.v2) (antibody, V domains shown)
VH: EVQLVESGGGLVQPGGSLRLSCAASGYTFTSYWLHWVRQAPGKGLEWVGMIDPSNSDTRFNPNFKDRFTISADTSKNTAYLQMNSLRAEDTAVYYCATYRSYVTPLDYWGQGTLVTVSS
VL: DIQMTQSPSSLSASVGDRVTITCKSSQSLLYTSSQKNYLAWYQQKPGKAPKLLIYWASTRESGVPSRFSGSGSGTDFTLTISSLQPEDFATYYCQQYYAYPWTFGQGTKVEIK
notes: second chain of the monovalent knob-into-hole format; Engineered monovalent (one-armed) antibody made with knob-into-hole technology; also called MetMab; source: Expi293 transient mammalian expression system, purified (HiTrap Mabselect SuRe); copies: 1 + 1 + 1

- binding result [2]: binds
- binding result [3]: binds
- binding result [4]: binds
B2: IRCR201 single-chain variable fragment (scFv) (scFv, V domains shown)
VH: EVQLLESGGGLVQPGGSLRLSCAASGFTFSNYAMSWVRQAPGKGLEWVSGISYSGGSTYYADSVKGRFTISRDNSKNTLYLQMNSLRAEDTAVYYCAKASRSCQRPACSYANGMDVWGQGTLVTVSS
VL: QSVLTQPPSASGTPGQRVTISCTGSSSNIGNNYVTWYQQLPGTAPKLLIYYNNHRPSGVPDRFSGSKSGTSASLAISGLQSEDEADYYCGSWDYSLSAYVFGGGTKLTVL
notes: VH and VL as in m1; Detected with anti-HA-peroxidase; also called scFv of IRCR201; IRCR201 scFv; source: E. coli TOP10F', purified from bacterial lysates (Ni-NTA agarose)

- binding result (bovine serum albumin): no binding
- Kd [5]: 0.721 nM
- koff [5]: 0.00304 s⁻¹
- kon [5]: 4.23e+06 M⁻¹ s⁻¹
- Kd (mouse c-Met ECD-Fc): 0.845 nM
- koff (mouse c-Met ECD-Fc): 0.00323 s⁻¹
- kon (mouse c-Met ECD-Fc): 3.83e+06 M⁻¹ s⁻¹
- binding result [6]: no binding
B3: IRCR201 (antibody, V domains shown)
VH: B2 VH
VL: B2 VL
notes: CDR-H3 of 18 amino acids; IgG1; frameworks are not pointed to; also called IRCR201 IgG1; fully human bivalent anti-c-Met antibody; source: Expi293 transient mammalian expression system, purified (HiTrap Mabselect SuRe); copies: 2 + 2
